Read-outs that look alike come from different tables or passages of the source.
How the values were obtained:
[1] = target: T1, recombinant human TFPI (tissue factor pathway inhibitor) (human, UniProt P10646 29-304); assay: cell-based or functional assay
[2] = target: T1, recombinant human TFPI (tissue factor …); assay: cell-based or functional assay; remark: listed apart in the source
[3] = target: T1, recombinant human TFPI (tissue factor …); assay: cell-based or functional assay; remark: listed apart in the source
[4] = target: T1, recombinant human TFPI (tissue factor …); assay: cell-based or functional assay; remark: listed apart in the source
[5] = target: T1, recombinant human TFPI (tissue factor …); assay: cell-based or functional assay; remark: listed apart in the source
[6] = target: T1, recombinant human TFPI (tissue factor …); assay: SPR, Biacore T-200; TFPI immobilised on CM5 chip, IgG as analyte
Procedure: 10 mM of glycine-HCl (pH 1.5) was run at a flow rate of 30 μL/min for 30 seconds, thereby inducing the dissociation of the antibody associated with the TFPI. The affinity in terms of kinetic rate constants (Kₒₙ and Koff) and equilibrium dissociation constant

B1: clone T417 (antibody, V domains shown)
VH: EVHLVESGGDLVKPGGSLKLSCAASGFTFSSYAMSWVRQTPDKRLEWVATITTGGSYTYYPDSVKGRFTISRDNAKNTLYLQMSSLKSEDTAMYYCARQDGNFLMDYWGQGTTVTVSS
VL: not shown
notes: also called T417 chimeric antibody
With B1 the “% of Normalized, TF/FVIIa/FX complex assay, Ab 1.56 nM” value [1] was 17.5%, the “% of Normalized, TF/FVIIa/FX complex assay, Ab 3.13 nM” value [1] was 17.2% and the “% of Normalized, TF/FVIIa/FX complex assay, Ab 6.25 nM” value [1] was 20%. For the same binder, the “% of Normalized, TF/FVIIa/FX complex assay, Ab 12.5 nM” value [1] was 27.7%, the “% of Normalized, TF/FVIIa/FX complex assay, Ab 25 nM” value [1] was 97.7% and the “% of Normalized, TF/FVIIa/FX complex assay, Ab 50 nM” value [1] was 102%. The “% of Normalized, TF/FVIIa/FX complex assay, Ab 100 nM” value [1] was 102%, the “A405, TF/FVIIa/FX complex assay, Ab 1.56 nM” value [2] was 0.045 and the “A405, TF/FVIIa/FX complex assay, Ab 3.13 nM” value [2] was 0.047. For the same binder, the “A405, TF/FVIIa/FX complex assay, Ab 6.25 nM” value [2] was 0.05, the “A405, TF/FVIIa/FX complex assay, Ab 12.5 nM” value [2] was 0.074 and the “A405, TF/FVIIa/FX complex assay, Ab 25 nM” value [2] was 0.273. For the same binder, the “A405, TF/FVIIa/FX complex assay, Ab 50 nM” value [2] was 0.6, the “A405, TF/FVIIa/FX complex assay, Ab 100 nM” value [2] was 0.81 and the “TF/FVIIa/FXa assay % of 0 nM TFPI, 12.5 nM Ab, 50 nM TFPI” value [3] was 21.2%. For the same binder, the “TF/FVIIa/FXa assay % of 0 nM TFPI, 50 nM Ab, 50 nM TFPI” value [3] was 115%, the “TF/FVIIa/FXa assay % of 0 nM TFPI, 100 nM Ab, 50 nM TFPI” value [3] was 113% and the “TF/FVIIa/FXa assay OD, 12.5 nM Ab, 50 nM TFPI” value [3] was 0.17 OD. For the same binder, the “TF/FVIIa/FXa assay OD, 25 nM Ab, 50 nM TFPI” value [3] was 0.696 OD, the “TF/FVIIa/FXa assay OD, 50 nM Ab, 50 nM TFPI” value [3] was 0.924 OD and the “TF/FVIIa/FXa assay OD, 100 nM Ab, 50 nM TFPI” value [3] was 0.907 OD. For the same binder, the “FXa assay % of FXa alone, 2.5 nM Ab, 10 nM TFPI” value [4] was 6.9%, the “FXa assay % of FXa alone, 5 nM Ab, 10 nM TFPI” value [4] was 18.8% and the “FXa assay % of FXa alone, 10 nM Ab, 10 nM TFPI” value [4] was 55.2%. For the same binder, the “FXa assay % of FXa alone, 20 nM Ab, 10 nM TFPI” value [4] was 78%, the “FXa assay OD, 2.5 nM Ab, 10 nM TFPI” value [4] was 0.0335 and the “FXa assay OD, 5 nM Ab, 10 nM TFPI” value [4] was 0.091. For the same binder, the “FXa assay OD, 10 nM Ab, 10 nM TFPI” value [4] was 0.267, the “FXa assay OD, 20 nM Ab, 10 nM TFPI” value [4] was 0.378 and the “FXa assay % of FXa alone, 2.5 nM Ab, 10 nM TFPI” value [5] was 9.8%. For the same binder, the “FXa assay % of FXa alone, 5 nM Ab, 10 nM TFPI” value [5] was 52.1%, the “FXa assay % of FXa alone, 10 nM Ab, 10 nM TFPI” value [5] was 69.4% and the “FXa assay % of FXa alone, 20 nM Ab, 10 nM TFPI” value [5] was 81.8%. For the same binder, the “FXa assay OD, 2.5 nM Ab, 10 nM TFPI” value [5] was 0.079, the “FXa assay OD, 5 nM Ab, 10 nM TFPI” value [5] was 0.42 and the “FXa assay OD, 10 nM Ab, 10 nM TFPI” value [5] was 0.56. The “FXa assay OD, 20 nM Ab, 10 nM TFPI” value [5] was 0.66 and the Kd [6] was 6.7 pM.
